Data as given in patent US20220056125A1.

Biological target: cynomolgus PAR-2 on cells (cynomolgus monkey)
Assay: cell-based or functional assay

B1: P24E1102 (antibody, human IgG4 S228P, kappa, V domains shown)
VH: QVQLVQSGAEVKKPGSSVKVSCKASGFSLSSYAISWVRQAPGQGLEWMGVIWGNQNVYYAQKFQGRVTITADESTSTAYMELSSLRSEDTAVYYCARWKGYKDYPFDYWGQGTLVTVSS
VL: EIVLTQSPATLSLSPGERATLSCRASQNVYKWLDWYQQKPGQAPRLLIYNANTRATGIPARFSGSGSGRDFTLTISSLEPEDFAVYYCQQHHSGWTFGGGTKVEIKR
  IC50 mean, calcium flux at SLIGKV EC80, Nomad line: 3.98 nM
  IC50 mean, β-arrestin at SLIGKV EC80, Nomad line: 15.2 nM
